Laboratory results reported in publication PMC3893232.
Like-named read-outs stand apart in the source and are kept apart here.

How the values were obtained:
SEC [1] = test: SEC
SEC [2] = test: SEC; remark: listed apart in the source

Row | Substance | % monomer (SEC [1]) [%] | % monomer (SEC [2]) [%]
1 | IgG1-Y407A | 5 | 1
2 | IgG1-Y407E (natural mixture of HL and (HL)2) | 95 | 90
